# The DeepSol protein solubility set
# Assay: soluble on expression in E. coli; label from the status in PepcDB or PDB records
row,Sequence,soluble on expression in E. coli
1,MSLLIKFESKSARVKGISFHPTRPWVLTSLHSGVIQLWDYRMCVLLEKFDEHDGPVRGICFHHDQPIFVSGGDDYKIKVWNYKQKRCIFTLLGHLDYIRTTFFHHKYPWIISASDDQTVRIWNWQSRNSIAILTGHNHYVMCAQFHPTEDLVASASLDQTVRVWDISGLRKKQMPGGGAPSRPTGGQQAELFGQPDAVVKHVLEGHDRGVNWVAFHHTNPILVSGSDDRQVKIWRYNETKAWELDSCRGHYNNVSSVIFHPNADLILSNSEDKSIRVWDMQKRTSLHVFRHENERFWVLAAHPSLNMFAAGHDNGMVVFKIQRERPAYCVSDNLVFYVKGQQIRKLDLTTNKDVALCKLRYPQPFMQPYYSLSFNPAEGTFLLTSRTHNKDLCAFELYKVASNSDGTTEAACVKSTGINALWVARNRFAVLDKAQNVSLRDLTNKELRKLENINTAVDDIFYAGTGMLLLRNDDGLQLFDVQQKIVTASVKVSKVRYVIWSKSMEFAALLSKHTLTLVNRKLEILCTQQESTRVKSGAWDDDSVFLYTTSNHIKYAINSGDCGIVRTLDLPLYILAIRGNVLYCLNRDATPVEVPIDNSDYKFKLALINKRIDEVVNMVRSANLVGQSIIGYLEKKGYPEIALHFVKDEKTRFGLAIECGNLEIALEAAKKLDEPAVWEALGETALLQGNHQIVEMSYQRTKNFEKLSFLYFVTGNTDKLVKMMKIAQARNDAHGHFQTALYTGDVEERVKVLRNCGQTSLAYLAAATHGYSAEAEELKAELESRQQPIPPVDPNARLLVPPPPVARLEENWPLLASARGTFDAQLLGLGGQSAPTNVGGVKPAAAAFAVMDDDDGDVGNEAWGDDEYLVGEDGELDVDEGEGPVDGDEEGGWDVDDDLALPDVTDDQGGDDDEEVVPNPAPAVSSEWPNVSRLAADHVAAGSFGTAIKLLHDTIGVVEAAPFKDVFVKAYAASRLSHRGWGGLGPAGPVSIHPVRNFQEDKNHLPVAAFKLSQLAKKLQKAYQMTTNGKFGDAVEKLREILLSVPLIVVSSKQEVAEAEQLITITREYLAALLLETYRKDLPKTNLEDAKRNAELAAYFTHFELQPMHRILTLRSAINTFFKMKQMKTCASLCKRLLELAPKPEVAAQIRKVLTAAEKDNTDAHQLTYDEHNPFVVCSRQFVPLYRGRPLCKCPYCGASYSEGLEGEVCNVCQVAEVGKNVLGLRISTLKS,not soluble
2,PSDTVTLFMSGDGGWRDLDKVVAGDMAKMGYPVVGIDVLRYYWEHKTPEQTAADLTDLMNHYRQKWGTKRFILAGYSFGADVMPAIYNRLAADDQNRVDAIILLAFAR,not soluble
3,MASSVVFAATGSLSVPPLKSRRFYVNSSLDSDVSDMSVNAPKGLFPPEPVPYKGPKLKVAIIGAGLAGMSTAVELLDQGHEVDIYDSRTFIGGKVGSFVDRRGNHIEMGLHVFFGCYNNLFRLMKKVGAEKNLLVKDHTHTFINKDGTIGELDFRFPVGAPIHGIRAFLVTNQLKPYDKLRNSLALALSPVVKALVDPDGAMRDIRNLDSISFSDWFLSKGGTRASIQRMWDPVAYALGFIDCDNMSARCMLTIFSLFATKTEASLLRMLKGSPDVYLSGPIKQYITDRGGRIHLRWGCREILYDKSADGETYVTGLAISKATNKKIVKADVYVAACDVPGIKRLLPKEWRESRFFNDIYELEGVPVVTVQLRYNGWVTELQDIELARQLKRAVGLDNLLYTPDADFSCFADLALASPADYYIEGQGTLLQCVLTPGDPYMRMPNDKIIEKVAMQVTELFPSSRGLEVTWSSVVKIAQSLYREAPGKDPFRPDQKTPIKNFFLAGSYTKQDYIDSMEGATLSGRQASSYICDAGEELAELNKKLSSSATAVPDELSLV,not soluble
4,MDDLQADDIKTSDENSAMVLLVDDQAMIGEAVRRGLAGHESIDFHFCADPHQAIAQAVQIKPTVILQDLVMPGLDGLTLVREYRSNPLTRDIPIIVLSTKEDPLIKSAAFAAGANDYLVKLPDNIELVARIRYHSRSYMTLLQRDEAYRALRVSQQQLLDTNLVLQRLMNSDGLTGLSNRRHFDEYLELEWRRATRDQAQLSLLMIDVDYFKAYNDNFGHLEGDEALRQVAKAIRNSCSRPSDLPARYGGEEFAMVLPNTSPGGARLLAEKLRQSVAGMNIPHIAPVPGSSLTVSIGVATVTPQVGQHSRQLILDADKGLYLAKNNGRNQVAAG,soluble
5,MAHHHHHHMYEVYYLNEHDEFEKKKKKNEEIQSSLILKNHAISSEKKSKLVKHNIYEGGYTIWECTWDMLKFFHKEGFDFNNKQVLELGCGHGLVGIKVLLDNGNVVFQELNKEVINDVLLPNIKKNLKMKLKKKKLKENKHYMKINNDKITCYVINKPWHKLNSKLQKKKLNCFDFILGNEILYRKENYYHILKILKKNLKKGGKAYFGSKSYYFGFEDGTGSNSFVTYVNNNEHFNFVARIIQTTTGKSVYSKDIIEVTFSPNND,not soluble
6,MEKVLDLDVQVKANNNSNDSAGDERITSHSLCTPGCAKTGSFNSFCC,not soluble
7,MSLVLVKAMARIVMKFGGTSVANLERIHNVARHVKREVDAGHEVAVVVSAMSGKTNELVDWVQNAAKVAGTNAASFYDAREYDAVVASGEQVTSGLLAITLQSMGINARSWQGWQIPIRTDNAHGAARILEIDGSDIVHRMGEGQVAVVAGFQGIGPDNRIATLGRGGSDTSAVAIAAAVKADRCDIYTDVDGVYTTDPRIEPKARRMKKIAFEEMLEMASLGAKVLQVRSVELAMVHKVRTFVRSSFEDPDAPGMGDLINPPGTLICDEDEIVEQEVVTGIAYAKDEAQISLRRVADRPGVSAAIFGPLAEAHINVDMIVQNISEDGSRTDMTFTVPSGDVAKALRVLDENKGQIGFDVAQNETGLAKVSVIGIGMRSHAGVAASAFKALAEKNINIKAITTSEIKISILIDGAYAELAVRTLHSAYGLDKAEGHHHHHH,not soluble
8,MSLNLPSFTLDIKLAGDGPAGVEKQIQQMQAMVDDRVDLIIVQPTDNAALSSPLQAANQAGIPVVAYDQYISGGHLSAFVTSNNYQAGFLDGEYMAHHFADDHTIQIILVEYPYVSSTIDRVDGFFDALNQYKQPYRILRSYQAVEPVQGRAVGQQILQDFPQPGSVDALFTINDGGGLAIVDELEKAGRHELFVATIDGDPNSVARIRKGSIIKIDSAQFCGPIGAEAMRAAYAILTAGKVHEHWLVPVFPITRQSVAHYPGWSGPIPEHYSNPCLTFLCREGHHHHHH,not soluble
9,KPYPYQQDMLESLQAEREQHNRHRNLLVAATGTGKTVVAALDYRSMCDALGRRPRLLFIAHRKEILQQALRTFREVLSDGNFGELLVDGVLPKEWTHVFASIQSLNTSRMEALGKDHFEFIIIDEFHHAQAISYRKVMDYFEPQELLGLTATPERG,not soluble
10,MLQPPKIVAELSANHNQDLNLAKESLHAIKESGADFVKLQTYTPSCMTLNSKEDPFIIQGTLWDKENLYELYQKASTPLEWHAELFELARKLDLGIFSSPFSSQALELLESLNCPMYKIASFEIVDLDLIEKAARTQKPIILSSGIATHTELQDAISLCRRVNNFDITLLKCVSAYPSKIEDANLLSMVKLGEIFGVKFGLSDHTIGSLCPILATTLGASMIEKHFILNKSLQTPDSAFSMDFNGFKSMVEAIKQSVLALGEEEPRINPKTLEKRRFFARSLFVIKDIQKGEALTENNIKALRPNLGLHPKFYKEILGQKASKFLKANTPLSADDIERSLLEHHHHHH,not soluble
11,GPGSMVKPRSQGPRRPAVKQADNKSVGDRSKTAVTEKMKPSRLVGGTTGAKKERREGKKVSTGKANKVAATSASTVVLKEGGKPSGPSHGTGTNSSRRGKRSPQAQTRRAAARVASRVIESNSRITAATNRMNTAREELALFDQVTQMPAFVADPFTAIDEHLSTAMDFLQPQTPDVGRVKRE,soluble
12,MGSDKIHHHHHHVTDHGFSFCAHAEQYAIIGSLSQLETSDNRDCDIRRPALNRCMAEKGTLRPEAAQIFQRLEALGLKQRELAQALGIEENKISKVRAGERQFKGAELLAAYEWLDQREAEAHMPRLSRVAAVGQQVIPATPVEGEVVQIQKLDLSLSMGPGTLIDGYVESELVSFDLGFVRLFTRAASDHLRLVTGIGDSMEPTLKWGDLILIDTTDRMLSKQDGIYWINLYGAAGIKRLRAIGPRTILVKSDNPGVDDQEVEAEDLRIEGRAIWATRGL,not soluble
13,MGSDKIHHHHHHMSINDKEKKKLQRAILIIACEVARICKKNDIPYFINGGTQIGAVRHNGFIPWDDDFDIGFKRKDYEKFIKACDKDLNKDKFFLQTPETEEYYAFDFAKLQLKGTEIIEDFSKNVKIQHGIFVDLFPHDNIPDCKLKRKLFLFKNHLMKNILWVKCGYGEKKHKSKLSYKMVKFVSKFFSIKQIKQSRSKLLDKYNNTKTTQCIISDYPNDLIMNSWLDDLQLFRFEEVEFYGIKQYDAYLKSLYGDYMSLPPESERIVHSNYKIDFGLYDGLLEDMLYGNNI,not soluble
14,MGSDKIHHHHHHMDNKELKAFCNLIGLNCVGVAGVDKYDNLEKILKDRQQKGYLTGMEEPIIENRINPRHIMKDANSIIVCAFPYHINRQEKNKNSNLSKYCHGKDYHIVVKDFLQQICDYISKTVTDFKYKLFADNGPLVDRYLAYLSGIGYFGINNNIITDEYGSYVFIGYIVNNYKFEEDKPLEKSCFKCGKCVKYCPGNAILGNYDMNPKKCLSYITQKKGDLSEKEKVVLKNGKKVFGCDICQEVCPHNVEIPTTHILEFKENIIDYLDYDEIQNISNKEFKRRYGDRAFSWRGRNIIKRNMEIILDKYDD,not soluble
15,MGSDKIHHHHHHMLIDEEITLKKLETFLAFMRTGNLARAAAELGTSNVSVHRAIHSLESALRCPLFKHEGRNLTPLESAYVLEERAQKLVQEVLDTVRLTREAAGFSAERFKLGALYSLTVKTVPQLIMGLKLRRSALNIDLILGSNVDLFYQLKNMELDAILVSLNDSVSDPDCEHLPLFSDDIFLAVPVDSPYARLAEIDLSTLRDTPFVTLTQGFATHQDGTRVFQQAGFEPQIAMQVNDIFTLLSMVSSGVGHALLPKRIEAVYENRVRLIPLQPRYRLQQHIGVVFLKAKERDPNLLALLAECRMYSLRLEQEAAG,not soluble
16,MVRLPPPTPPRKPNICGTSGNSNGINENIDTSTFSVSAAKALFESAKRPEVRNAAIAAAKNPFVRQTAKNVAQDEKARGAVLNAVKDPSGGNKISAAFAVADANRKSDSVPPPPPHRGGTSPGKLSGSHSAIRSQLENMHIGGSVMSSNSSTATPSYQSNSTSSYSSSAPVAPPPVPRHTQSIPSYSAPAISTPYGIAKFDYAPTQSDEMGLRIGDTVLISKKVDAEWFYGENQNQRTFGIVPSSYLDIKIPLKEAFTALPPRPAAPSGSSSGTYATAIYDYNSNEAGDLNFAVGSQIMVTARVNEEWLEGECFGRSGIFPSQFVDCPNLYQVPMKQSAPSSAPSYSHPITNNSGPKQTVTVSYDYDSGVASDLRLFEGDVITALEDIDAQWLLAECRGQQGMVPKTFLGPPYGSPKKAPSKGIAEIACAFSPKKAVATGDYHSEDPKHLYVTRGDHLLIVEDVDDYYYKGKLEAFKTLPAGILPKNIVKLEN,not soluble
17,GPGSMAPALCFTCMQPSRWTREGLPLILPLFQHLSPLSPFPNPSCNGISMCCTHTHTHTHTHTHTHTHAHTRLHLFQRFCFVNAIDFYELGAKSTRRVHGKVIIAARSRAPAMPPPAAAVSSSPSSSAAPMAVVYVRRDGRTALELRGKEMKLSDMTTFDGSSWYAQGQTAVMVSIHGPTIAKNDEYDTCIVQVRIQHAGVLAPAAGGAEKALYEERKLELLTRTDALALGSLLESTLNAVFLRERFPRCVLVVDVIVVRDDGSLPAVALNAVMSALLDAGLPCRTTMAAVCVAVLTHDGGADSNSGPAPDRHSSVEGSSSAGSVYEYLLDPTSAEESLGVGYAVPASSAAEKAAVTGASSVATSSAAPMSLRGGNAAQQVQGQYRCVSTGVFAFSNPACGGGLLAQLVRSVGSGSAEMCGPGVSVQAYAEMVALAERASAVLFEFFRQCNVAE,not soluble
